Laboratory results: IntAct's records for PubMed 24970085

B1: Lysosome-associated membrane glycoprotein 1 (Homo sapiens), P11279 (parent)
chain: MAAPGSARRPLLLLLLLLLLGLMHCASAAMFMVKNGNGTACIMANFSAAFSVNYDTKSGPKNMTFDLPSDATVVLNRSSCGKENTSDPSLVIAFGRGHTLTLNFTRNATRYSVQLMSFVYNLSDTHLFPNASSKEIKTVESITDIRADIDKKYRCVSGTQVHMNNVTVTLHDATIQAYLSNSSFSRGETRCEQDRPSPTTAPPAPPSPSPSPVPKSPSVDKYNVSGTNGTCLLASMGLQLNLTYERKDNTTVTRLLNINPNKTSASGSCGAHLVTLELHSEGTTVLLFQFGMNASSSRFFLQGIQLNTILPDARDPAFKAANGSLRALQATVGNSYKCNAEEHVRVTKAFSVNIFKVWVQAFKVEGGQFGSVEECLLDENSMLIPIAVGGALAGLVLIVLIAYLVGRKRSHAGYQTI

Variants of: B1
Conditions: with glyc_lassj GPC

Which “effect of a mutation on the interaction” value does the source give for N76S here?
Its value is “disrupting interaction”.
